From patent US5919901

What was measured:
Rat Y2 (clone) (rat) = experiment: competition with [125I]PYY on the rat Y2 clone
Rat Y1 (clone) (rat) = Rat Y1 (clone) (rat) (UniProt P21555); experiment: competition with [125I]PYY on the rat Y1 clone
[1] = biological target: rat NPY Y5 receptor, clone Y861 (rat); experiment: competition with [125I]PYY, membranes of transfected COS-7 cells
[2] = biological target: rat NPY Y5 receptor, clone Y217.24.13.6B (rat); experiment: competition with [125I]PYY, membranes of transfected COS-7 cells; second individual value in brackets
[3] = biological target: rat NPY Y5 receptor, clone Y217.24.13.6B (rat); experiment: competition with [125I]PYY, membranes of transfected COS-7 cells; first individual value in brackets
Rat Y4/PP1 (clone) (rat) = Rat Y4/PP1 (clone) (rat) (UniProt Q63447); experiment: competition with rat [125I]PP on the rat Y4/PP1 clone
[4] = biological target: rat NPY Y5 receptor, clone Y555 (rat); experiment: competition with [125I]PYY, membranes of transfected COS-7 cells; second individual value in brackets
[5] = biological target: rat NPY Y5 receptor, clone Y555 (rat); experiment: competition with [125I]PYY, membranes of transfected COS-7 cells; first individual value in brackets
[6] = biological target: rat NPY Y5 receptor, clone Y555 (rat); experiment: competition with [125I]PYY, membranes of transfected COS-7 cells; average of two experiments

Chain of Rat Y4/PP1 (clone) (rat) (Q63447 whole entry): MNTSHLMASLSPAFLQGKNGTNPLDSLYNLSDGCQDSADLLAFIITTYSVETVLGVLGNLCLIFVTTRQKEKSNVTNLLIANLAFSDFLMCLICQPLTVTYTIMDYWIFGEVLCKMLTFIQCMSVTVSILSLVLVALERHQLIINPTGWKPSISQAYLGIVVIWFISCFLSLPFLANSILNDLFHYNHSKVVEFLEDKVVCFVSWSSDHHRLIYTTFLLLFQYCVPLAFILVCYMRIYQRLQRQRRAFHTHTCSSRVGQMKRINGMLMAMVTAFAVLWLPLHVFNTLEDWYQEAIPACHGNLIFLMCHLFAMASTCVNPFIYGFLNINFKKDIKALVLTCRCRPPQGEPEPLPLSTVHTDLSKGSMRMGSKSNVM

r/h(Leu^31 Pro^34)(3-36)NPY (from UniProt P01303) (peptide)
IC50 (Rat Y2 (clone) (rat)): 154 nM
IC50 (Rat Y1 (clone) (rat)): 44 nM

r/h(32D-Trp)NPY (from UniProt P01303) (peptide)
IC50 [1]: 7 nM
IC50 (Rat Y1 (clone) (rat)): > 1000 nM

rPP (from UniProt P06303) (peptide)
IC50 (Rat Y2 (clone) (rat)): > 1000 nM

r/hNPY (from UniProt P01303) (peptide)
IC50 (Rat Y2 (clone) (rat)): 0.24 nM

p(13-36)NPY (from UniProt P01304) (peptide)
IC50 (Rat Y2 (clone) (rat)): 1.3 nM

h(Leu^31 Pro^34)PYY (from UniProt P10082) (peptide)
IC50 [2]: 0.69 nM
IC50 [3]: 0.65 nM
IC50 [1]: 2 nM

rPYY (from UniProt P10631) (peptide)
IC50 (Rat Y2 (clone) (rat)): 0.079 nM

r/h(10-36)NPY (from UniProt P01303) (peptide)
IC50 (Rat Y2 (clone) (rat)): 0.42 nM

r/h(2-36)NPY (from UniProt P01303) (peptide)
IC50 (Rat Y2 (clone) (rat)): 0.5 nM

r/hNPY, P01303 (peptide; other documents disagree on this pair)
IC50 (Rat Y4/PP1 (clone) (rat)): > 1000 nM

r/h(LP)NPY (from UniProt P01303) (peptide)
IC50 [4]: 0.92 nM
IC50 [5]: 1 nM
IC50 [6]: 0.96 nM

(1-24)NPY (peptide)
IC50 (Rat Y2 (clone) (rat)): > 1000 nM
IC50 [1]: > 1000 nM
IC50 (Rat Y1 (clone) (rat)): > 1000 nM

p(Leu^31 Pro^34)NPY (from UniProt P01304) (peptide)
IC50 (Rat Y2 (clone) (rat)): 150 nM
IC50 (Rat Y1 (clone) (rat)): 0.15 nM
